Consider eight molecules from patent US11833164B2, “Methods of treating Fabry disease in patients having a mutation in the GLA gene” (Amicus Therapeutics, Inc., priority 2019, dated 2023).

For the test, the system named is mutant form of α-Gal A expressed in HEK-293 cells. As to the kind of experiment: HEK assay (GLP HEK / Migalastat Amenability Assay): α-Gal A activity in lysates of transiently transfected HEK-293 cells incubated with or without 10 μM migalastat. The test is classed as cell-based, human. The note with it: for Absolute increase (% WT): 10 μM migalastat versus baseline; for Relative increase: 10 μM migalastat α-Gal A activity relative to baseline; for 10 μM migalastat α-Gal A activity (% WT): 5 days; for 10 μM migalastat α-Gal A activity (% WT) / Baseline α-Gal A activity (% WT): percentage of baseline wild-type α-Gal A activity; for 10 μM migalastat α-Gal A activity (% WT) / Baseline α-Gal A activity (% WT) / Baseline α-Gal A activity / 10 μM migalastat α-Gal A activity: mean ± SEM; for Baseline α-Gal A activity (% WT): absence of migalastat; for Baseline α-Gal A activity / 10 μM migalastat α-Gal A activity: lysates of HEK-293 cells transfected with the mutant form; for Baseline α-Gal A activity: incubated 5 days in the absence of migalastat; for 10 μM migalastat α-Gal A activity: incubated 5 days with 10 μM migalastat. Here is the method:
Such mutations or variants are also referred to herein as “HEK assay amenable” mutations or variants.
The α-Gal A activity is expressed as the nmoles of free 4-MU released per milligram of protein per hour (nmol/mg/hr).
In Table 7, values for the mean±standard error of the mean (SEM) were calculated. nmol/mg/hr indicates “nmoles of free 4-MU released per mg of protein per hour”. WT indicates “wild-type”. NC indicates “not calculable”. N/A indicates “not applicable”.

B1: I117T (protein)
chain: MQLRNPELHLGCALALRFLALVSWDIPGARALDNGLARTPTMGWLHWERFMCNLDCQEEPDSCISEKLFMEMAELMVSEGWKDAGYEYLCIDDCWMAPQRDSEGRLQADPQRFPHGTRQLANYVHSKGLKLGIYADVGNKTCAGFPGSFGYYDIDAQTFADWGVDLLKFDGCYCDSLENLADGYKHMSLALNRTGRSIVYSCEWPLYMWPFQKPNYTEIRQYCNHWRNFADIDDSWKSIKSILDWTSFNQERIVDVAGPGGWNDPDMLVIGNFGLSWNQQVTQMALWAIMAAPLFMSNDLRHISPQAKALLQDKDVIAINQDPLGKQGYQLRQGDNFEVWERPLSGLAWAVAMINRQEIGGPRSYTIAVASLGKGVACNPACFITQLLPVKRKLGFYEWTSRLRSHINPTGTVLLQLENTMQMSLKDLL
In the case of B1, the “Absolute increase (% WT)” value is 4.7 % WT, the Relative increase came to 2.1, the “10 μM migalastat α-Gal A activity (% WT)” value is recorded as 9 ± 0.9 % WT and the “Baseline α-Gal A activity (% WT)” value is 4.3 ± 0.2 % WT. The “Baseline α-Gal A activity” value worked out at 1607 ± 54 nmol/mg/h and the “10 μM migalastat α-Gal A activity” value was determined as 3303 ± 308 nmol/mg/h.

B2: H125D (protein)
chain: MQLRNPELHLGCALALRFLALVSWDIPGARALDNGLARTPTMGWLHWERFMCNLDCQEEPDSCISEKLFMEMAELMVSEGWKDAGYEYLCIDDCWMAPQRDSEGRLQADPQRFPHGIRQLANYVDSKGLKLGIYADVGNKTCAGFPGSFGYYDIDAQTFADWGVDLLKFDGCYCDSLENLADGYKHMSLALNRTGRSIVYSCEWPLYMWPFQKPNYTEIRQYCNHWRNFADIDDSWKSIKSILDWTSFNQERIVDVAGPGGWNDPDMLVIGNFGLSWNQQVTQMALWAIMAAPLFMSNDLRHISPQAKALLQDKDVIAINQDPLGKQGYQLRQGDNFEVWERPLSGLAWAVAMINRQEIGGPRSYTIAVASLGKGVACNPACFITQLLPVKRKLGFYEWTSRLRSHINPTGTVLLQLENTMQMSLKDLL
In the case of B2, the “Absolute increase (% WT)” value was found to be 6.5 % WT, the Relative increase turned out to be 3.3, the “10 μM migalastat α-Gal A activity (% WT)” value was determined as 8.8 ± 1.4 % WT and the “Baseline α-Gal A activity (% WT)” value was found to be 2.3 ± 0.2 % WT. The “Baseline α-Gal A activity” value came out at 995 ± 106 nmol/mg/h and the “10 μM migalastat α-Gal A activity” value was determined as 3282 ± 375 nmol/mg/h.

B3: A121V (protein)
chain: MQLRNPELHLGCALALRFLALVSWDIPGARALDNGLARTPTMGWLHWERFMCNLDCQEEPDSCISEKLFMEMAELMVSEGWKDAGYEYLCIDDCWMAPQRDSEGRLQADPQRFPHGIRQLVNYVHSKGLKLGIYADVGNKTCAGFPGSFGYYDIDAQTFADWGVDLLKFDGCYCDSLENLADGYKHMSLALNRTGRSIVYSCEWPLYMWPFQKPNYTEIRQYCNHWRNFADIDDSWKSIKSILDWTSFNQERIVDVAGPGGWNDPDMLVIGNFGLSWNQQVTQMALWAIMAAPLFMSNDLRHISPQAKALLQDKDVIAINQDPLGKQGYQLRQGDNFEVWERPLSGLAWAVAMINRQEIGGPRSYTIAVASLGKGVACNPACFITQLLPVKRKLGFYEWTSRLRSHINPTGTVLLQLENTMQMSLKDLL
As to B3, the “Absolute increase (% WT)” value worked out at 56.7 % WT, the Relative increase is 3.7, the “10 μM migalastat α-Gal A activity (% WT)” value was found to be 78.2 ± 4.2 % WT and the “Baseline α-Gal A activity (% WT)” value was determined as 21.5 ± 1.2 % WT. In addition, the “Baseline α-Gal A activity” value stood at 7301 ± 253 nmol/mg/h and the “10 μM migalastat α-Gal A activity” value turned out to be 26639 ± 1124 nmol/mg/h.

B4: Y123F (protein)
chain: MQLRNPELHLGCALALRFLALVSWDIPGARALDNGLARTPTMGWLHWERFMCNLDCQEEPDSCISEKLFMEMAELMVSEGWKDAGYEYLCIDDCWMAPQRDSEGRLQADPQRFPHGIRQLANFVHSKGLKLGIYADVGNKTCAGFPGSFGYYDIDAQTFADWGVDLLKFDGCYCDSLENLADGYKHMSLALNRTGRSIVYSCEWPLYMWPFQKPNYTEIRQYCNHWRNFADIDDSWKSIKSILDWTSFNQERIVDVAGPGGWNDPDMLVIGNFGLSWNQQVTQMALWAIMAAPLFMSNDLRHISPQAKALLQDKDVIAINQDPLGKQGYQLRQGDNFEVWERPLSGLAWAVAMINRQEIGGPRSYTIAVASLGKGVACNPACFITQLLPVKRKLGFYEWTSRLRSHINPTGTVLLQLENTMQMSLKDLL
As to B4, the “Absolute increase (% WT)” value is given as 33.8 % WT, the Relative increase stood at 1.5, the “10 μM migalastat α-Gal A activity (% WT)” value was 97.4 ± 3.4 % WT and the “Baseline α-Gal A activity (% WT)” value came out at 63.6 ± 3.3 % WT. For the same molecule, the “Baseline α-Gal A activity” value was 22066 ± 1408 nmol/mg/h and the “10 μM migalastat α-Gal A activity” value came out at 33544 ± 1384 nmol/mg/h.

B5: Y123S (protein)
chain: MQLRNPELHLGCALALRFLALVSWDIPGARALDNGLARTPTMGWLHWERFMCNLDCQEEPDSCISEKLFMEMAELMVSEGWKDAGYEYLCIDDCWMAPQRDSEGRLQADPQRFPHGIRQLANSVHSKGLKLGIYADVGNKTCAGFPGSFGYYDIDAQTFADWGVDLLKFDGCYCDSLENLADGYKHMSLALNRTGRSIVYSCEWPLYMWPFQKPNYTEIRQYCNHWRNFADIDDSWKSIKSILDWTSFNQERIVDVAGPGGWNDPDMLVIGNFGLSWNQQVTQMALWAIMAAPLFMSNDLRHISPQAKALLQDKDVIAINQDPLGKQGYQLRQGDNFEVWERPLSGLAWAVAMINRQEIGGPRSYTIAVASLGKGVACNPACFITQLLPVKRKLGFYEWTSRLRSHINPTGTVLLQLENTMQMSLKDLL
For the molecule B5, the “Absolute increase (% WT)” value was 19.3 % WT, the Relative increase was 1.5, the “10 μM migalastat α-Gal A activity (% WT)” value came out at 61 ± 3.6 % WT and the “Baseline α-Gal A activity (% WT)” value was 41.7 ± 2.1 % WT. Besides, the “Baseline α-Gal A activity” value was 14556 ± 986 nmol/mg/h and the “10 μM migalastat α-Gal A activity” value was 21255 ± 1484 nmol/mg/h.

B6: Y123N (protein)
chain: MQLRNPELHLGCALALRFLALVSWDIPGARALDNGLARTPTMGWLHWERFMCNLDCQEEPDSCISEKLFMEMAELMVSEGWKDAGYEYLCIDDCWMAPQRDSEGRLQADPQRFPHGIRQLANNVHSKGLKLGIYADVGNKTCAGFPGSFGYYDIDAQTFADWGVDLLKFDGCYCDSLENLADGYKHMSLALNRTGRSIVYSCEWPLYMWPFQKPNYTEIRQYCNHWRNFADIDDSWKSIKSILDWTSFNQERIVDVAGPGGWNDPDMLVIGNFGLSWNQQVTQMALWAIMAAPLFMSNDLRHISPQAKALLQDKDVIAINQDPLGKQGYQLRQGDNFEVWERPLSGLAWAVAMINRQEIGGPRSYTIAVASLGKGVACNPACFITQLLPVKRKLGFYEWTSRLRSHINPTGTVLLQLENTMQMSLKDLL
As for B6, the “Absolute increase (% WT)” value is listed as 19.7 % WT, the Relative increase stood at 1.5, the “10 μM migalastat α-Gal A activity (% WT)” value is listed as 60.6 ± 4.1 % WT and the “Baseline α-Gal A activity (% WT)” value stood at 40.9 ± 3.2 % WT. Besides, the “Baseline α-Gal A activity” value worked out at 13817 ± 816 nmol/mg/h and the “10 μM migalastat α-Gal A activity” value is 20466 ± 846 nmol/mg/h.

B7: Y123D (protein)
chain: MQLRNPELHLGCALALRFLALVSWDIPGARALDNGLARTPTMGWLHWERFMCNLDCQEEPDSCISEKLFMEMAELMVSEGWKDAGYEYLCIDDCWMAPQRDSEGRLQADPQRFPHGIRQLANDVHSKGLKLGIYADVGNKTCAGFPGSFGYYDIDAQTFADWGVDLLKFDGCYCDSLENLADGYKHMSLALNRTGRSIVYSCEWPLYMWPFQKPNYTEIRQYCNHWRNFADIDDSWKSIKSILDWTSFNQERIVDVAGPGGWNDPDMLVIGNFGLSWNQQVTQMALWAIMAAPLFMSNDLRHISPQAKALLQDKDVIAINQDPLGKQGYQLRQGDNFEVWERPLSGLAWAVAMINRQEIGGPRSYTIAVASLGKGVACNPACFITQLLPVKRKLGFYEWTSRLRSHINPTGTVLLQLENTMQMSLKDLL
As for B7, the “Absolute increase (% WT)” value is listed as 10.2 % WT, the Relative increase is recorded as 1.2, the “10 μM migalastat α-Gal A activity (% WT)” value worked out at 53.6 ± 2.7 % WT and the “Baseline α-Gal A activity (% WT)” value is 43.4 ± 1.6 % WT. Besides, the “Baseline α-Gal A activity” value worked out at 15093 ± 815 nmol/mg/h and the “10 μM migalastat α-Gal A activity” value came to 18723 ± 1237 nmol/mg/h.

B8: V124I (protein)
chain: MQLRNPELHLGCALALRFLALVSWDIPGARALDNGLARTPTMGWLHWERFMCNLDCQEEPDSCISEKLFMEMAELMVSEGWKDAGYEYLCIDDCWMAPQRDSEGRLQADPQRFPHGIRQLANYIHSKGLKLGIYADVGNKTCAGFPGSFGYYDIDAQTFADWGVDLLKFDGCYCDSLENLADGYKHMSLALNRTGRSIVYSCEWPLYMWPFQKPNYTEIRQYCNHWRNFADIDDSWKSIKSILDWTSFNQERIVDVAGPGGWNDPDMLVIGNFGLSWNQQVTQMALWAIMAAPLFMSNDLRHISPQAKALLQDKDVIAINQDPLGKQGYQLRQGDNFEVWERPLSGLAWAVAMINRQEIGGPRSYTIAVASLGKGVACNPACFITQLLPVKRKLGFYEWTSRLRSHINPTGTVLLQLENTMQMSLKDLL
B8: the “Absolute increase (% WT)” value was determined as 30.6 % WT, the Relative increase is given as 1.4, the “10 μM migalastat α-Gal A activity (% WT)” value is 111.3 ± 4.5 % WT and the “Baseline α-Gal A activity (% WT)” value worked out at 80.7 ± 2 % WT. In addition, the “Baseline α-Gal A activity” value is 32074 ± 1858 nmol/mg/h and the “10 μM migalastat α-Gal A activity” value was 43288 ± 2179 nmol/mg/h.
